Values joined by “and” are separate entries in the source; they are usually repeats but may differ in a detail not shown here. Equal values may be shown once. Read-outs that look alike come from different tables or passages of the source.
What was measured:
Assay in all cases: SPR
[1] = molecular target: T1, SARS-CoV-2 spike protein, kappa variant (SPR, FIG. 28 Panel D) (SARS-CoV-2, UniProt P0DTC2 16-1213)
[2] = molecular target: T2, SARS-CoV-2 spike protein, gamma variant (SPR, FIG. 28 Panel C) (SARS-CoV-2, UniProt P0DTC2 16-1213)
[3] = molecular target: SARS-CoV-2 spike protein, Delta variant (SPR) (SARS-CoV-2, UniProt P0DTC2 16-1213)
[4] = molecular target: T3, SARS-CoV-2 spike protein, beta variant (SPR, FIG. 28 Panel B) (SARS-CoV-2, UniProt P0DTC2 16-1213)
[5] = molecular target: SARS-CoV-2 S Trimer Alpha B.1.1.7 UK variant
[6] = molecular target: T2, SARS-CoV-2 spike protein, gamma variant …; remark: listed apart in the source
[7] = molecular target: SARS-CoV-2 spike protein, wildtype variant (SPR, FIG. 28 Panel A) (SARS-CoV-2, UniProt P0DTC2 16-1213)
[8] = molecular target: T1, SARS-CoV-2 spike protein, kappa variant …; remark: listed apart in the source
[9] = molecular target: T3, SARS-CoV-2 spike protein, beta variant …; remark: listed apart in the source
[10] = molecular target: SARS-CoV-2 mutant trimer UK TB918-09

B1: antibody 339-031 (Fc fusion)
chain: EVQLVESGGGLVQPGGSLRLSCAASGSTFSINAMGWFRQAPGKEREFVAGITSSGGYTNYADSVKGRFTISADNSKNTAYLQMNSLKPEDTAVYYCAADGVPEYSDYASGPVWGQGTLVTVSS
B1 was tested, and the Kd [1] was < 0.01 nM, the Kd [2] was < 0.0094 nM and the Kd [3] was < 0.011 nM. The Kd [4] was < 0.0096 nM.

B2: T8339-031 (Fc fusion)
chain: EVQLVESGGGLVQPGGSLRLSCAASGSTFSINAMGWFRQAPGKEREFVAGITSSGGYTNYADSVKGRFTISADNSKNTAYLQMNSLKPEDTAVYYCAADGVPEYSDYASGPVWGQGTLVTVSS
With B2 the Kd [5] was < 0.011 nM.

B3: antibody 202-03 (Fc fusion)
chain: EVQLVESGGGLVQPGGSLRLSCAASGFTFSPSWMGWFRQAPGKEREFVATINEYGGRNYADSVKGRFTISADNSKNTAYLQMNSLKPEDTAVYYCARVDRDFDYWGQGTLVTVSS
B3 was tested, and the Kd [1] was 0.272 nM, the Kd [6] was < 0.041 nM and the Kd [7] was < 0.064 nM. For the same binder, the Kd [8] was 0.105 nM, the Kd [9] was < 0.05 nM and the Kd [2] was < 0.073 nM. The Kd [3] was 0.312 nM and the Kd [4] was < 0.095 nM.

B4: 6-3 (Fc fusion)
chain: EVQLVESGGGLVQPGGSLRLSCAASGFTFSPSWMGWFRQAPGKEREFVATINEYGGRNYADSVKGRFTISADNSKNTAYLQMNSLKPEDTAVYYCARVDRDFDYWGQGTLVTVSS
For B4, the Kd [10] was 0.857 nM and 1.3 nM.

B5: T8202-3 (TP37196F) (Fc fusion)
chain: EVQLVESGGGLVQPGGSLRLSCAASGFTFSPSWMGWFRQAPGKEREFVATINEYGGRNYADSVKGRFTISADNSKNTAYLQMNSLKPEDTAVYYCARVDRDFDYWGQGTLVTVSS
B5 was tested, and the Kd [5] was < 0.075 nM.

— patent publication US20230002478A1 (published 2023)
